In series [1] the test system is GFP-caspase-3 recognition peptide inserted modified protein.
The subject of series [2] is GFP-trypsin recognition peptide inserted modified protein.

On to “Caspase-3 (Medical & Biological Laboratories)”, for which, in series [1], the “FRET between quantum dot and GFP after protease treatment (30 C, 120 minutes)” value is “the disappearance of FRET was observed”; the “peak wavelength of fluorescence intensity” value is given as “shifted from 510 nm (untreated with trypsin) to 506 nm (treated with trypsin)”.
For the substance Trypsin, in series [2], the “FRET between quantum dot and GFP after protease treatment (37 C, 120 minutes)” value is listed as “the disappearance of FRET was observed”; the “FRET waveform pattern, simultaneous DNase/trypsin assay (QD565 with GFP of FIG. 5A)” value was “it was observed that the peak around 510 nm shifted”; the “peak wavelength of fluorescence intensity” value is “shifted from 513 nm (untreated with trypsin) to 508 nm (treated with trypsin)”.

Source of the values: patent US20090117551.
